In the data set the test system is Escherichia coli TOP10. The data set is described as follows: shrunken log2 fold change of peptide-encoding DNA abundance (4.5 h post-induction vs induction); higher = less antimicrobial activity (less host growth inhibition). The following applies: time post-induction: 4.5 h; library: site-saturation at positions 5, 18, 19, 20.
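Also: peptides expressed intracellularly from a pBAD plasmid library in pooled LB shake-flask culture, induced with 0.3% L-arabinose, DNA abundance read by NGS, three biological replicates, DESeq2 with apeglm shrinkage.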

Regarding RRIRSRPPRLPRPRPRPDLAPRP, the “shrunken log2 fold change” value stood at 0.444. For RRIRMRPPRLPRPRPRPITSPRP the value was 0.0639; for RRIRIRPPRLPRPRPRPFQFPRP, -0.237; for RRIRLRPPRLPRPRPRPVRYPRP, -0.162. Take RRIRFRPPRLPRPRPRPRMKPRP: the “shrunken log2 fold change” value is -0.0673. For RRIRPRPPRLPRPRPRPGHRPRP the value was 0.0675; for RRIRHRPPRLPRPRPRPDLFPRP, -0.00544; for RRIRIRPPRLPRPRPRPIHIPRP, -0.149. For RRIRGRPPRLPRPRPRPDFSPRP the value was 0.313; for RRIRARPPRLPRPRPRPHVVPRP, -0.288. As for RRIRNRPPRLPRPRPRPTERPRP, the “shrunken log2 fold change” value is -0.25. Next, RRIRKRPPRLPRPRPRPALNPRP: 0.589; RRIRNRPPRLPRPRPRPGHEPRP: -0.265; RRIRNRPPRLPRPRPRPPAVPRP: 0.387. For RRIRWRPPRLPRPRPRPHAEPRP the value was 0.0375; for RRIRPRPPRLPRPRPRPNHRPRP, -0.11. Consider RRIRTRPPRLPRPRPRPLRMPRP, for which the “shrunken log2 fold change” value is -0.0962. For RRIRMRPPRLPRPRPRPTNYPRP the value was -0.212; for RRIRNRPPRLPRPRPRPYIEPRP, -0.275. Next, RRIRIRPPRLPRPRPRPAFIPRP: -0.509; RRIRYRPPRLPRPRPRPCHPPRP: -0.669; RRIRQRPPRLPRPRPRPGIHPRP: 0.0177.

As for RRIRMRPPRLPRPRPRPAFVPRP, the “shrunken log2 fold change” value is 0.233. Next, RRIRVRPPRLPRPRPRPWRMPRP: 0.077; RRIRRRPPRLPRPRPRPKDMPRP: -0.0599; RRIRNRPPRLPRPRPRPFGSPRP: -0.0105. For RRIRSRPPRLPRPRPRPPMNPRP the value was -0.347. Next, RRIRSRPPRLPRPRPRPLGEPRP: 0.175.

For the sequence RRIRFRPPRLPRPRPRPADDPRP, the “shrunken log2 fold change” value was -0.053. Next, RRIRHRPPRLPRPRPRPFCHPRP: -0.308; RRIRARPPRLPRPRPRPYANPRP: -0.165. For RRIRARPPRLPRPRPRPCRCPRP the value was 0.0187; for RRIRQRPPRLPRPRPRPRQLPRP, 0.0166; for RRIRLRPPRLPRPRPRPDFAPRP, 0.0202. Regarding RRIRERPPRLPRPRPRPAVIPRP, the “shrunken log2 fold change” value is -0.12. Next, RRIRNRPPRLPRPRPRPTPSPRP: 0.338.

For RRIRCRPPRLPRPRPRPGQIPRP, the “shrunken log2 fold change” value amounted to 0.165. For RRIRERPPRLPRPRPRPFFTPRP the value was -0.106; for RRIRQRPPRLPRPRPRPHNPPRP, -0.33; for RRIRLRPPRLPRPRPRPKTAPRP, 0.037. Consider RRIRNRPPRLPRPRPRPLCMPRP, for which the “shrunken log2 fold change” value is -0.218.

In the case of RRIRFRPPRLPRPRPRPGSHPRP, the “shrunken log2 fold change” value is -0.225. Next, RRIRFRPPRLPRPRPRPPSEPRP: 0.28; RRIRNRPPRLPRPRPRPTFPPRP: -0.112. As to RRIRNRPPRLPRPRPRPKAPPRP, the “shrunken log2 fold change” value was -0.0518. With RRIRLRPPRLPRPRPRPYTGPRP, the “shrunken log2 fold change” value is -0.125.

Take RRIRDRPPRLPRPRPRPERNPRP: the “shrunken log2 fold change” value was 0.278. Next, RRIRARPPRLPRPRPRPYKNPRP: -0.524; RRIRERPPRLPRPRPRPGMEPRP: 0.00479; RRIRARPPRLPRPRPRPHNAPRP: -0.0368. For RRIRLRPPRLPRPRPRPFGGPRP the value was -0.334. Take RRIRRRPPRLPRPRPRPACYPRP: the “shrunken log2 fold change” value was determined as 0.488.

As for RRIRKRPPRLPRPRPRPSYPPRP, the “shrunken log2 fold change” value is -0.435. For RRIRIRPPRLPRPRPRPTVEPRP the value was -0.0817.

On to RRIRWRPPRLPRPRPRPKIPPRP, for which the “shrunken log2 fold change” value is 0.0948.

In the case of RRIRHRPPRLPRPRPRPTQQPRP, the “shrunken log2 fold change” value came out at 0.0495. RRIRVRPPRLPRPRPRPWVWPRP: the “shrunken log2 fold change” value worked out at 0.292. As for RRIRHRPPRLPRPRPRPISCPRP, the “shrunken log2 fold change” value is -0.0318. For RRIRQRPPRLPRPRPRPSWDPRP the value was -0.16; for RRIRARPPRLPRPRPRPRSWPRP, 0.533. Turning to RRIRRRPPRLPRPRPRPSWAPRP, the “shrunken log2 fold change” value was found to be 0.157. RRIRCRPPRLPRPRPRPDDKPRP: the “shrunken log2 fold change” value is -0.739. RRIRMRPPRLPRPRPRPLATPRP: the “shrunken log2 fold change” value was 2.2. Next, RRIRERPPRLPRPRPRPQTIPRP: -0.378. For RRIRLRPPRLPRPRPRPYQMPRP the value was -0.188. Consider RRIRSRPPRLPRPRPRPGYAPRP, for which the “shrunken log2 fold change” value was 0.111. For RRIRHRPPRLPRPRPRPHHIPRP, the “shrunken log2 fold change” value was -1.53. RRIRMRPPRLPRPRPRPRQRPRP: the “shrunken log2 fold change” value is 1.79. For RRIRQRPPRLPRPRPRPKKTPRP the value was -0.0104; for RRIRERPPRLPRPRPRPMPDPRP, 0.17; for RRIRSRPPRLPRPRPRPYALPRP, -0.613. In the case of RRIRLRPPRLPRPRPRPMTLPRP, the “shrunken log2 fold change” value was -0.156. Next, RRIRERPPRLPRPRPRPGFVPRP: 0.755.

On to RRIRKRPPRLPRPRPRPNEMPRP, for which the “shrunken log2 fold change” value worked out at 0.0671.

As for RRIRTRPPRLPRPRPRPKEEPRP, the “shrunken log2 fold change” value is 0.00448. For RRIRQRPPRLPRPRPRPDDPPRP, the “shrunken log2 fold change” value was -0.0062. Regarding RRIRDRPPRLPRPRPRPQMWPRP, the “shrunken log2 fold change” value is -0.23.

Consider RRIRKRPPRLPRPRPRPCILPRP, for which the “shrunken log2 fold change” value is -0.283.

For the sequence RRIRCRPPRLPRPRPRPVLEPRP, the “shrunken log2 fold change” value is -0.249. For RRIRLRPPRLPRPRPRPEGMPRP the value was 0.194; for RRIRFRPPRLPRPRPRPDVHPRP, -0.179; for RRIRCRPPRLPRPRPRPHLSPRP, -0.147. Next, RRIRKRPPRLPRPRPRPANPPRP: 0.071; RRIRKRPPRLPRPRPRPSSNPRP: -0.0818; RRIRWRPPRLPRPRPRPCKRPRP: 0.118. For RRIRWRPPRLPRPRPRPEKCPRP the value was 0.0983; for RRIRPRPPRLPRPRPRPFTMPRP, 1.43. Take RRIRIRPPRLPRPRPRPGNMPRP: the “shrunken log2 fold change” value is -0.105. Take RRIRERPPRLPRPRPRPDCMPRP: the “shrunken log2 fold change” value is -0.255.

As to RRIRMRPPRLPRPRPRPLNSPRP, the “shrunken log2 fold change” value was -0.0401. Next, RRIRLRPPRLPRPRPRPCPMPRP: -0.444. As to RRIRIRPPRLPRPRPRPNCLPRP, the “shrunken log2 fold change” value is -0.602. On to RRIRLRPPRLPRPRPRPEWFPRP, for which the “shrunken log2 fold change” value worked out at 0.161.

On to RRIRRRPPRLPRPRPRPSVWPRP, for which the “shrunken log2 fold change” value came to 0.703. With RRIRERPPRLPRPRPRPKSVPRP, the “shrunken log2 fold change” value is -0.00947. Next, RRIRHRPPRLPRPRPRPATLPRP: -0.24; RRIRCRPPRLPRPRPRPSYHPRP: 0.811.

As to RRIRYRPPRLPRPRPRPIAFPRP, the “shrunken log2 fold change” value was -0.564. Next, RRIRHRPPRLPRPRPRPEFRPRP: 0.00953; RRIRNRPPRLPRPRPRPLYPPRP: -0.586; RRIRPRPPRLPRPRPRPGVTPRP: -0.227. Next, RRIRWRPPRLPRPRPRPFAMPRP: -0.148; RRIRPRPPRLPRPRPRPTKKPRP: 0.0418; RRIRYRPPRLPRPRPRPESDPRP: 0.03.

As for RRIRDRPPRLPRPRPRPIFDPRP, the “shrunken log2 fold change” value came to 0.0515.

Turning to RRIRKRPPRLPRPRPRPINLPRP, the “shrunken log2 fold change” value is -0.00204.

On to RRIRFRPPRLPRPRPRPFILPRP, for which the “shrunken log2 fold change” value is -0.749. For RRIRFRPPRLPRPRPRPCFNPRP the value was -0.385; for RRIRMRPPRLPRPRPRPNDAPRP, 0.317; for RRIRIRPPRLPRPRPRPGTHPRP, -0.431. For the sequence RRIRIRPPRLPRPRPRPLCDPRP, the “shrunken log2 fold change” value was -0.655.

Turning to RRIRSRPPRLPRPRPRPTWVPRP, the “shrunken log2 fold change” value amounted to 0.0759. RRIRWRPPRLPRPRPRPAWGPRP: the “shrunken log2 fold change” value amounted to 0.477. Next, RRIRQRPPRLPRPRPRPQAPPRP: 0.233; RRIRSRPPRLPRPRPRPFCDPRP: -0.353; RRIRARPPRLPRPRPRPGKAPRP: 0.266. Next, RRIRQRPPRLPRPRPRPKEKPRP: 0.00902; RRIRKRPPRLPRPRPRPEVTPRP: -0.0421. With RRIRDRPPRLPRPRPRPESEPRP, the “shrunken log2 fold change” value turned out to be 0.444. For RRIRVRPPRLPRPRPRPGHMPRP the value was 0.0482; for RRIRMRPPRLPRPRPRPTPKPRP, 0.107; for RRIRCRPPRLPRPRPRPNYKPRP, -0.831.

Turning to RRIRYRPPRLPRPRPRPMNDPRP, the “shrunken log2 fold change” value was -0.188. For RRIRRRPPRLPRPRPRPETFPRP, the “shrunken log2 fold change” value is -0.0525. For RRIRFRPPRLPRPRPRPPLWPRP the value was 0.46.

The record behind these values is the supplement of paper PMC9112550, “Optimization of the antimicrobial peptide Bac7 by deep mutational scanning” (BMC Biology, 2022).
